From patent US20100285015A1 (University of Pennsylvania, published 2010)

Target: T1, mouse HMGB1 (produced in E. coli (Sigma)) (mouse, UniProt P63158 1-215, limits assumed)
T1 construct: Bought reagent; also called late cytokine (HMGB1); recombinant HMGB1
T1 sequence (looked up): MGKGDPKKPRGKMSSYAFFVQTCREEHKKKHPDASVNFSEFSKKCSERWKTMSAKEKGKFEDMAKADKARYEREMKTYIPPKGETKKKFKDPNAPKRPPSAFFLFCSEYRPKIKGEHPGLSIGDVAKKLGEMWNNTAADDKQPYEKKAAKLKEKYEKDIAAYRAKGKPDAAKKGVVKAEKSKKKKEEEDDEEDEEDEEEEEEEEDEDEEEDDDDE
Experiment: agglutination of Ter119-TM loaded mouse RBCs after HMGB1 and anti-HMGB1 antibody
Experimental: Mouse and human RBCs were washed in PBS/3% BSA buffer, resuspended in the same buffer to 10% hematocrit and incubated with Ter119-TM (final concentration […]) for 1 h. […] Then cells were washed 3 times with PBS/BSA buffer and equimolar amount of mouse HMGB1 (produced in E. coli (Sigma)) was added to the assay for 30 min at room temperature. Then RBC were washed with PBS/BSA and brought to the final hematocrit of 1% and the monoclonal Ab to mouse HMGB1 (Sigma, dilution as per manufacturer) was added to the assay placed into a V-shaped plate (total volume-100 μl).

binding result: binds
B1: Ter119scFv-TM (thrombomodulin) fusion protein (other)
chain: RSPWPGVPTSQVKLQESGGGLVQPGGSLKLSCVASGFTFRDHWMNWVRQAPGKTMEWIGDIRPDGSDTNYAPSVRNRFTISRDNARSILYLQMSNMRSDYTATYYCVRDSPTRAGLMDAWGQGASVTVLTGGGGSGGGGSGGGGSDIQMIQSPSVLSASVGDRVTLNCKASQNINKYLNWYQQKLGEAPKVLIYNTNNLQTGIPSRFSGSGSGTDFTLTISSLQPEDFATYFCFQHYTWPTFGGGTKLELKRASSSSGSSSSGAAALSALAKLQPTGSQCVEHECFALFQGPATFLDASQACQRLQGHLMTVRSSVAADVISLLLSQSSMDLGPWIGLQLPQGCDDPVHLGPLRGFQWVTGDNHTSYSRWARPNDQTAPLCGPLCVTVSTATEAAPGEPAWEEKPCETETQGFLCEFYFTASCRPLTVNTRDPEAAHISSTYNTPFGVSGADFQTLPVGSSAAVEPLGLELVCRAPPGTSEGHWAWEATGAWNCSVENGGCEYLCNRSTNEPRCLCPRDMDLQADGRSCARPVVQSCNELCEHFCVSNAEVPGSYSCMCETGYQLAADGHRCEDVDDCKQGPNPCPQLCVNTKGGFECFCYDGYELVDGECVELLDPCFGSNCEFQCQPVSPTDYRCICAPGFAPKPDEPHKCEMFCNETSCPADCDPNSPTVCECPEGFILDEGSVCTDIDECSQGECFTSECRNFPGSYECICGPDTALAGQISKDCDPIPVREDTKEEEGSGEPPVSPTPGSPTGPPSARPVHSDYKDHDGDYKDHDIDYKDDDDK
notes: Expressed in Drosophila S2 cells from a pMT/BiP/V5-HisA plasmid; Some assays used it directly from S2 cell medium; also called Ter119-TM
